Tested on: Escherichia coli TOP10
Test: shrunken log2 fold change of peptide-encoding DNA abundance (4.5 h post-induction vs induction); higher = less antimicrobial activity (less host growth inhibition)
Details: time post-induction: 4.5 h; library: site-saturation at positions 5, 18, 19, 20
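Further: peptides expressed intracellularly from a pBAD plasmid library in pooled LB shake-flask culture, induced with 0.3% L-arabinose, DNA abundance read by NGS, three biological replicates, DESeq2 with apeglm shrinkage.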

Sequence | shrunken log2 fold change
RRIRIRPPRLPRPRPRPMRYPRP | -0.176
RRIRIRPPRLPRPRPRPMSRPRP | -0.24
RRIRIRPPRLPRPRPRPMSSPRP | -0.215
RRIRIRPPRLPRPRPRPMTKPRP | 0.0447
RRIRIRPPRLPRPRPRPMVWPRP | 0.0906
RRIRIRPPRLPRPRPRPNAYPRP | -0.243
RRIRIRPPRLPRPRPRPNCGPRP | 0.0437
RRIRIRPPRLPRPRPRPNDAPRP | -0.182
RRIRIRPPRLPRPRPRPNESPRP | -0.243
RRIRIRPPRLPRPRPRPNHIPRP | -1.16
RRIRIRPPRLPRPRPRPNKEPRP | -0.131
RRIRIRPPRLPRPRPRPNKKPRP | -0.0918
RRIRIRPPRLPRPRPRPNLDPRP | -0.564
RRIRIRPPRLPRPRPRPNNLPRP | -0.69
RRIRIRPPRLPRPRPRPNNPPRP | -0.471
RRIRIRPPRLPRPRPRPNQLPRP | -0.136
RRIRIRPPRLPRPRPRPNQSPRP | -0.812
RRIRIRPPRLPRPRPRPNQTPRP | -0.00271
RRIRIRPPRLPRPRPRPNQWPRP | -0.422
RRIRIRPPRLPRPRPRPNRKPRP | 0.00157
RRIRIRPPRLPRPRPRPNRNPRP | -1.1
RRIRIRPPRLPRPRPRPNSPPRP | 0.00971
RRIRIRPPRLPRPRPRPNVSPRP | -0.052
RRIRIRPPRLPRPRPRPNWAPRP | 0.0373
RRIRIRPPRLPRPRPRPNWLPRP | -0.0339

Sequence | shrunken log2 fold change
RRIRIRPPRLPRPRPRPPATPRP | 0.177
RRIRIRPPRLPRPRPRPPCCPRP | -0.31
RRIRIRPPRLPRPRPRPPDCPRP | -0.0639
RRIRIRPPRLPRPRPRPPDKPRP | -0.0243
RRIRIRPPRLPRPRPRPPDWPRP | 0.286
RRIRIRPPRLPRPRPRPPEIPRP | -0.578
RRIRIRPPRLPRPRPRPPFEPRP | -0.0183
RRIRIRPPRLPRPRPRPPFIPRP | -0.755
RRIRIRPPRLPRPRPRPPFSPRP | -0.245
RRIRIRPPRLPRPRPRPPGGPRP | 0.512
RRIRIRPPRLPRPRPRPPGHPRP | 0.11
RRIRIRPPRLPRPRPRPPHQPRP | 0.000816
RRIRIRPPRLPRPRPRPPINPRP | -0.305
RRIRIRPPRLPRPRPRPPKCPRP | -0.101
RRIRIRPPRLPRPRPRPPKGPRP | 0.0681
RRIRIRPPRLPRPRPRPPKQPRP | -0.158
RRIRIRPPRLPRPRPRPPPIPRP | 0.141
RRIRIRPPRLPRPRPRPPPTPRP | 0.834
RRIRIRPPRLPRPRPRPPQTPRP | 0.0803
RRIRIRPPRLPRPRPRPPSRPRP | 0.231
RRIRIRPPRLPRPRPRPPTNPRP | 0.0455
RRIRIRPPRLPRPRPRPPTVPRP | -0.155
RRIRIRPPRLPRPRPRPPYNPRP | -0.854
RRIRIRPPRLPRPRPRPQARPRP | -0.115
RRIRIRPPRLPRPRPRPQAWPRP | 0.386

Sequence | shrunken log2 fold change
RRIRIRPPRLPRPRPRPQCSPRP | -0.46
RRIRIRPPRLPRPRPRPQDDPRP | 0.0213
RRIRIRPPRLPRPRPRPQEMPRP | -0.379
RRIRIRPPRLPRPRPRPQETPRP | -0.0344
RRIRIRPPRLPRPRPRPQEYPRP | -0.312
RRIRIRPPRLPRPRPRPQFHPRP | -1.12
RRIRIRPPRLPRPRPRPQGDPRP | 0.0169
RRIRIRPPRLPRPRPRPQGNPRP | -0.304
RRIRIRPPRLPRPRPRPQHFPRP | -0.109
RRIRIRPPRLPRPRPRPQIFPRP | 0.0997
RRIRIRPPRLPRPRPRPQITPRP | -1.22
RRIRIRPPRLPRPRPRPQIWPRP | -0.174
RRIRIRPPRLPRPRPRPQLIPRP | -0.146
RRIRIRPPRLPRPRPRPQLKPRP | -0.456
RRIRIRPPRLPRPRPRPQLYPRP | -0.303
RRIRIRPPRLPRPRPRPQMLPRP | -0.633
RRIRIRPPRLPRPRPRPQMRPRP | 0.0729
RRIRIRPPRLPRPRPRPQPQPRP | 0.0386
RRIRIRPPRLPRPRPRPQQAPRP | 0.0151
RRIRIRPPRLPRPRPRPQQQPRP | -0.061
RRIRIRPPRLPRPRPRPQQVPRP | 0.00944
RRIRIRPPRLPRPRPRPQSEPRP | -0.219
RRIRIRPPRLPRPRPRPQSNPRP | -0.197
RRIRIRPPRLPRPRPRPQTGPRP | -0.139
RRIRIRPPRLPRPRPRPQTRPRP | -0.196
